Measured values from patent US20240002501A1.
One block for each substance: values may come before it.

Assays:
[1] = biological target: L1-CAM on L1-CAM(+) human tumor cells (human) (UniProt P32004); assay: flow cytometry, MSTO mesothelioma cells (control)
[2] = biological target: L1-CAM on L1-CAM(+) human tumor cells (human) (UniProt P32004); assay: flow cytometry, JMN mesothelioma cells (control)
[3] = biological target: L1-CAM on L1-CAM(+) human tumor cells (human) (UniProt P32004); assay: flow cytometry, MESO 10 mesothelioma cells (control)
[4] = biological target: L1-CAM on L1-CAM(+) human tumor cells (human) (UniProt P32004); assay: flow cytometry, MESO 11 mesothelioma cells (control)
[5] = biological target: L1-CAM on L1-CAM(+) human tumor cells (human) (UniProt P32004); assay: flow cytometry, MESO 34 mesothelioma cells (control)
[6] = biological target: L1-CAM on L1-CAM(+) human tumor cells (human) (UniProt P32004); assay: flow cytometry, MSTO-21H mesothelioma cells (control)
[7] = biological target: L1-CAM on L1-CAM(+) human tumor cells (human) (UniProt P32004); assay: flow cytometry, MESO 9 mesothelioma cells (control)
[8] = biological target: L1-CAM on L1-CAM(+) human tumor cells (human) (UniProt P32004); assay: flow cytometry, NCI-H2052 mesothelioma cells (control)
[9] = biological target: L1-CAM on L1-CAM(+) human tumor cells (human) (UniProt P32004); assay: flow cytometry, VAMT mesothelioma cells (control)
[10] = biological target: L1-CAM on L1-CAM(+) human tumor cells (human) (UniProt P32004); assay: flow cytometry, MESO 47 mesothelioma cells (control)
[11] = biological target: L1-CAM on L1-CAM(+) human tumor cells (human) (UniProt P32004); assay: flow cytometry, SKEPR EWS cells (control)
[12] = biological target: L1-CAM on L1-CAM(+) human tumor cells (human) (UniProt P32004); assay: flow cytometry, RH28 rhabdomyosarcoma cells (control)
[13] = biological target: L1-CAM on L1-CAM(+) human tumor cells (human) (UniProt P32004); assay: flow cytometry, SKNMM LUC NB cells (control)
[14] = biological target: L1-CAM on L1-CAM(+) human tumor cells (human) (UniProt P32004); assay: flow cytometry, UM SCC 22B HNSCC cells (control)
[15] = biological target: L1-CAM on L1-CAM(+) human tumor cells (human) (UniProt P32004); assay: flow cytometry, HTB25 breast CA cells (control)
[16] = biological target: L1-CAM on L1-CAM(+) human tumor cells (human) (UniProt P32004); assay: flow cytometry, RG143B osteosarcoma cells (control)
[17] = biological target: L1-CAM on L1-CAM(+) human tumor cells (human) (UniProt P32004); assay: flow cytometry, SKERT EWS cells (control)
[18] = biological target: L1-CAM on L1-CAM(+) human tumor cells (human) (UniProt P32004); assay: flow cytometry, HTB67 melanoma cells (control)
[19] = biological target: L1-CAM on L1-CAM(+) human tumor cells (human) (UniProt P32004); assay: flow cytometry, NCI-H524 SCLC cells (control)
[20] = biological target: L1-CAM on L1-CAM(+) human tumor cells (human) (UniProt P32004); assay: flow cytometry, NCI-H345 SCLC cells (control)
[21] = biological target: L1-CAM on L1-CAM(+) human tumor cells (human) (UniProt P32004); assay: flow cytometry, 8402 ALL cells (control)
[22] = biological target: L1-CAM on L1-CAM(+) human tumor cells (human) (UniProt P32004); assay: flow cytometry, TC32 EWS cells (control)
[23] = biological target: L1-CAM on L1-CAM(+) human tumor cells (human) (UniProt P32004); assay: flow cytometry, RH30 rhabdomyosarcoma cells (control)
[24] = biological target: L1-CAM on L1-CAM(+) human tumor cells (human) (UniProt P32004); assay: flow cytometry, RH41 rhabdomyosarcoma cells (control)
[25] = biological target: L1-CAM on L1-CAM(+) human tumor cells (human) (UniProt P32004); assay: flow cytometry, HTB24 breast CA cells (control)
[26] = biological target: L1-CAM on L1-CAM(+) human tumor cells (human) (UniProt P32004); assay: flow cytometry, THP-1 AML cells (control)
[27] = biological target: L1-CAM on L1-CAM(+) human tumor cells (human) (UniProt P32004); assay: flow cytometry, SKNCM NB cells (control)
[28] = biological target: L1-CAM on L1-CAM(+) human tumor cells (human) (UniProt P32004); assay: flow cytometry, HTB82 rhabdomyosarcoma cells (control)
[29] = biological target: L1-CAM on L1-CAM(+) human tumor cells (human) (UniProt P32004); assay: flow cytometry, MCF7 breast CA cells (control)
[30] = biological target: L1-CAM on L1-CAM(+) human tumor cells (human) (UniProt P32004); assay: flow cytometry, 5838 EWS cells (control)
[31] = biological target: L1-CAM on L1-CAM(+) human tumor cells (human) (UniProt P32004); assay: flow cytometry, ACC 104 M-07e AML cells (control)
[32] = biological target: L1-CAM on L1-CAM(+) human tumor cells (human) (UniProt P32004); assay: flow cytometry, TC71 EWS cells (control)
[33] = biological target: L1-CAM on L1-CAM(+) human tumor cells (human) (UniProt P32004); assay: flow cytometry, CHP-100 EWS cells (control)
[34] = biological target: L1-CAM on L1-CAM(+) human tumor cells (human) (UniProt P32004); assay: flow cytometry, CRL1427 osteosarcoma cells (control)
[35] = biological target: L1-CAM on L1-CAM(+) human tumor cells (human) (UniProt P32004); assay: flow cytometry, SKNMC EWS cells (control)
[36] = biological target: L1-CAM on L1-CAM(+) human tumor cells (human) (UniProt P32004); assay: flow cytometry, SKMEL28 melanoma cells (control)
[37] = biological target: L1-CAM on L1-CAM(+) human tumor cells (human) (UniProt P32004); assay: flow cytometry, SKELP EWS cells (control)
[38] = biological target: L1-CAM on L1-CAM(+) human tumor cells (human) (UniProt P32004); assay: flow cytometry, HCC1954 breast CA cells (control)
[39] = biological target: L1-CAM on L1-CAM(+) human tumor cells (human) (UniProt P32004); assay: flow cytometry, A4573 EWS cells (control)
[40] = biological target: L1-CAM on L1-CAM(+) human tumor cells (human) (UniProt P32004); assay: flow cytometry, SKES-1 EWS cells (control)
[41] = biological target: L1-CAM on L1-CAM(+) human tumor cells (human) (UniProt P32004); assay: flow cytometry, NCI-H82 SCLC cells (control)
[42] = biological target: L1-CAM on L1-CAM(+) human tumor cells (human) (UniProt P32004); assay: flow cytometry, RH36 rhabdomyosarcoma cells (control)
[43] = biological target: L1-CAM on L1-CAM(+) human tumor cells (human) (UniProt P32004); assay: flow cytometry, IMR32 LUC NB cells (control)
[44] = biological target: L1-CAM on L1-CAM(+) human tumor cells (human) (UniProt P32004); assay: flow cytometry, RH48 rhabdomyosarcoma cells (control)
[45] = biological target: L1-CAM on L1-CAM(+) human tumor cells (human) (UniProt P32004); assay: flow cytometry, AU565 breast CA cells (control)
[46] = biological target: L1-CAM on L1-CAM(+) human tumor cells (human) (UniProt P32004); assay: flow cytometry, SKEAW EWS cells (control)
[47] = biological target: L1-CAM on L1-CAM(+) human tumor cells (human) (UniProt P32004); assay: flow cytometry, SKEFM EWS cells (control)
[48] = biological target: L1-CAM on L1-CAM(+) human tumor cells (human) (UniProt P32004); assay: flow cytometry, LAN-1 NB cells (control)
[49] = biological target: L1-CAM on L1-CAM(+) human tumor cells (human) (UniProt P32004); assay: flow cytometry, M14 melanoma cells (control)
[50] = biological target: L1-CAM on L1-CAM(+) human tumor cells (human) (UniProt P32004); assay: flow cytometry, HTB-41 A253 submaxillary salivary gland cells (control)
[51] = biological target: L1-CAM on L1-CAM(+) human tumor cells (human) (UniProt P32004); assay: flow cytometry, U2OS osteosarcoma cells (control)
[52] = biological target: L1-CAM on L1-CAM(+) human tumor cells (human) (UniProt P32004); assay: flow cytometry, SW480 CRC cells (control)
[53] = biological target: L1-CAM on L1-CAM(+) human tumor cells (human) (UniProt P32004); assay: flow cytometry, NCI-H69 SCLC cells (control)
[54] = biological target: L1-CAM on L1-CAM(+) human tumor cells (human) (UniProt P32004); assay: flow cytometry, HPB-T ALL cells (control)

Sequence of L1-CAM on L1-CAM(+) human tumor cells (human) (P32004 20-1257 limits assumed): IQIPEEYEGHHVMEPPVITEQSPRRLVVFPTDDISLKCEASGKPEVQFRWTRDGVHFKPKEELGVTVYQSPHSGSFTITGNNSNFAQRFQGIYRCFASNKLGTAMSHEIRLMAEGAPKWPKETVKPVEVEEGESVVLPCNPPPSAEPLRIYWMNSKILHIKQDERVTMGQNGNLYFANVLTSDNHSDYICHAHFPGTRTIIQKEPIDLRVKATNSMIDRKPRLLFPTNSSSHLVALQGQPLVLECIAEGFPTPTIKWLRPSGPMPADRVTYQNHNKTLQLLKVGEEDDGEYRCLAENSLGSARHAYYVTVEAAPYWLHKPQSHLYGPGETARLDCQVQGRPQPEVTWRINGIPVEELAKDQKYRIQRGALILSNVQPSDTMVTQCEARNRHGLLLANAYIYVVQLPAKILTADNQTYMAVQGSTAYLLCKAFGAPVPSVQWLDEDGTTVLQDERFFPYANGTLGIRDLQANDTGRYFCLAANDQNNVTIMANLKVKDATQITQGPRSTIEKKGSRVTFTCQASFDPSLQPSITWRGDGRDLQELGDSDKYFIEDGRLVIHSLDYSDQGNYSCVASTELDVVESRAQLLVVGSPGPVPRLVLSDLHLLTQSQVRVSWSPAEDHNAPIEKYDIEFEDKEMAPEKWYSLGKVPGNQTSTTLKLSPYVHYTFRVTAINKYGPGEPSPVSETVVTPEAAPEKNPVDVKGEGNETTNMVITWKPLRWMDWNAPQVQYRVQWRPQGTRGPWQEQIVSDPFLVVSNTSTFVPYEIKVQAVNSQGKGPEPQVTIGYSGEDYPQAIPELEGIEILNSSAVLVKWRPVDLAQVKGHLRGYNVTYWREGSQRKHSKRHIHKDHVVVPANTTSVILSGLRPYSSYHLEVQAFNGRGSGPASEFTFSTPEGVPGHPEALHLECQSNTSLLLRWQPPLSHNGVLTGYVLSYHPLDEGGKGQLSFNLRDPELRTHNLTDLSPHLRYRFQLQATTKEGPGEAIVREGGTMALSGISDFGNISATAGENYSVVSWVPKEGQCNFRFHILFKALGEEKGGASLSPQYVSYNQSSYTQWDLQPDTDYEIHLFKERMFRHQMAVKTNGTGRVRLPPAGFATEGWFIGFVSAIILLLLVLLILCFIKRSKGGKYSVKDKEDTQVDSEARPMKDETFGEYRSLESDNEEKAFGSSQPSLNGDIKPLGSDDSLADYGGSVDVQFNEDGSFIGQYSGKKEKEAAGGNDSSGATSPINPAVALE

- MFI [1]: 5
- MFI [2]: 5
- MFI [3]: 5
- MFI [4]: 5
- MFI [5]: 5
- MFI [6]: 5
- MFI [7]: 5
- MFI [8]: 5
- MFI [9]: 5
- MFI [10]: 5
Substance: MOPC 21 (antibody)

- MFI [11]: 3
- MFI [12]: 5
- MFI [13]: 4
- MFI [14]: 5
- MFI [15]: 5
- MFI [16]: 5
- MFI [17]: 5
- MFI [18]: 5
- MFI [19]: 3
- MFI [20]: 3
- MFI [21]: 4
- MFI [22]: 5
- MFI [23]: 5
- MFI [24]: 5
- MFI [25]: 6
- MFI [26]: 5
- MFI [27]: 5
- MFI [28]: 5
- MFI [29]: 5
- MFI [30]: 5
- MFI [31]: 5
- MFI [32]: 5
- MFI [33]: 5
- MFI [34]: 5
- MFI [35]: 5
- MFI [36]: 5
- MFI [37]: 5
- MFI [38]: 5
- MFI [39]: 5
- MFI [40]: 5
- MFI [41]: 5
- MFI [42]: 5
- MFI [43]: 4
- MFI [44]: 5
- MFI [45]: 5
- MFI [46]: 5
- MFI [47]: 5
- MFI [48]: 6
- MFI [49]: 5
- MFI [50]: 5
- MFI [51]: 5
- MFI [52]: 5
- MFI [53]: 4
- MFI [54]: 5
Substance: Rituxan (antibody)
